Patent US20230039279A1, “INFLAMMATION-RESPONSIVE ANTI-INFLAMMATORY HYDROGELS” (Nanyang Technological University, priority 2019, published 2023)
Entries after “also recorded” stand apart in the source; their conditions may differ.

Tests used:
MMP-9 [1] = test: PMA skin inflammation mouse model, MMP-9 quantification in skin tissue by ELISA; type: in vivo; conditions: skin tissue at injection site
Method: (§1) We established a mouse model of skin inflammation using phorbol 12-myristate 13-acetate (PMA) as a stimulant (FIG. 12A) which could induce the upregulation of MMPs captured by MMPSense probe. At the PMA injection sites 24 hours post PMA injection, we observed a red area whose extent was associated with the increase in PMA amounts injected (FIG. 12B). […] In addition, there was a basal of amount of MMP which generated the lowest fluorescent signal at PMA-free PBS buffer injection site. Thus, as more PMA was subcutaneously injected, the fluorescent intensity rose; and more importantly this increase in signal intensity correlated with the extent of the red area on the dorsal side of mice. Protein expression was also studied as skin tissue at the PMA injection sites were retrieved for MMP-9 quantification using ELISA kit (FIG. 12E). […] Overall, PMA subcutaneous injection with increasing amounts could induce subcutaneous inflammation with increasing levels of severity, resulting in more MMP-9 secretion.

MMPs = test: PMA skin inflammation mouse model, MMP activity by MMPSense fluorescent imaging; type: in vivo; conditions: 24 hours after subcutaneous PMA injection
Method: as §1

[2] = test system: RAW 264.7 murine macrophages; test: WST-1 relative metabolic activity of macrophages treated with hydrogel releasates; type: cell-based; conditions: 0.6 mg/mL freely dissolved drug, equivalent dosage; 72 hours treatment
Method: RAW 264.7 murine macrophages were cultured in high glucose DMEM (Gibco Laboratories) supplemented with 10% FBS (Gibco Laboratories), and 1% penicillin/streptomycin (Gibco Laboratories) at 37° C. in 5% CO2 atmosphere. RAW 264.7 macrophages at passages of 20-30 were seeded in 96-well plates (Corning®) at an initial seeding density of 2×10^4 cells/well and incubated at 37° C. for 24 hours. A volume of 100 μL of each hybrid hydrogel (GEL-iP and scrGEL-iP) fabricated with 1.7% (w/v) of PEG and 5% (w/v) of ibuprofen-loaded PLGA microparticles was incubated in 500 μL of phenol red-free DMEM (Gibco Laboratories) culture medium for 2 hours in the presence and absence of 3 μg/ml of MMP-9 (FIG. 4A). […] Afterwards, the releasates were removed from the treated macrophages; and the in vitro metabolic activity of treated cells was evaluated using WST-1 cell proliferation assay (Abcam) as per manufacturer's protocol. […] A volume of 100 μL of this medium was then transferred into a new 96-well plate; and its absorbance at 450 nm and 690 nm was recorded using a microplate reader (SpectraMax M5). To calculate relative metabolic activity, all the absorbance values at 450 nm were subtracted by the values at the reference wavelength of 690 nm and the background absorbance to achieve corrected absorbance values. Afterward, the relative metabolic activity was calculated as follows: […]

[3] = Tube-inversion gelation screening of peptide crosslinkers with PEG-VS and ibu-PLGA particles; type: physicochemical
Method: Peptide-crosslinked hydrogels were prepared by reacting 4-arm poly(ethylene glycol)-vinyl sulfone (PEG-VS) (20 kDa, Sigma Aldrich, St. Louis, Mo., USA) with bis-cysteine peptides (Genscript, Hong Kong) in stoichiometric ratio. Each precursor was dissolved in either triethanolamine (TEOA) buffer (0.3M) or PBS/NaOH buffer (pH=10). Typically, to prepare 117 μL of peptide-crosslinked hydrogels with 4.2% (w/v) PEG content, 5 mg of PEG-VS was dissolved in 100 μL of a buffer solution in a glass vial and mixed with a stoichiometric amount of a peptide crosslinker dissolved in 17 μL of the same buffer solution. Hydrogels with 4.2% (w/v) PEG content were evaluated in the preliminary screening of peptide crosslinkers. Hydrogels with 1.7% (w/v) PEG content were used in all subsequent in vitro and in vivo experiments. To form hybrid hydrogels consisting of PLGA particles (with or without ibuprofen) embedded in peptide-crosslinked hydrogels, the aforementioned precursors were dissolved separately in a buffer solution containing suspended PLGA particles at a concentration of 5% (w/v).
To identify an optimal peptide crosslinker for GEL-iP, we performed qualitative screening of 8 peptide sequences (Table 3 and FIG. 14) by evaluating the influence of substrate and spacer choices on the gelation and cleavability of hybrid hydrogels. In addition, buffers in which gelation occurred was also investigated because their environmental pH might affect the deprotonation of thiols and subsequently influence the crosslinking process. For each combination of substrate, spacer and buffer, the feasibility of gelation was visually inspected via a tube-inversion method. A stoichiometric amount of a peptide crosslinker was added to a glass vial containing a mixture of PEG-VS solution and suspended ibu-PLGA particles. In a parallel experiment, another vial with the same mixture composition, but without the peptide crosslinker of interest, was used as a control. The two vials were inverted at regular intervals until the mixture in one vial stopped flowing despite gravity indicating successful gelation. An example of the successful gelation of a typical hybrid hydrogel was captured in photographs of glass vials A1 and A2 (FIG. 2). […] This solid white appearance resulted from the white ibu-PLGA particles. In the absence of any peptide crosslinker, the precursor mixture in the control vial A2 remained free-flowing, indicating absence of gelation.

MMP-9 [4] = target: T1, MMP-9 (Homo sapiens, UniProt P14780); test: MMP-9 cleavability of hybrid hydrogels (released particles seen under optical microscope); type: biochemical; set-up: purchased Merck; conditions: 3 μg/ml MMP-9 in PBS, 37° C., 20 hours
Method: Each hybrid hydrogel of 20 μL volume in a 500 μL Eppendorf tube was incubated at 37° C. with 3 μg/ml of MMP-9 (83 kDa, Merck) in PBS buffer (DPBS/modified, without calcium and magnesium, HyClone™). In a control experiment, another hybrid hydrogel with the same composition was immersed in PBS buffer without MMP-9. After 20 hours of incubation, the medium surrounding the hybrid hydrogel was sampled onto a cover slip and observed under an optical microscope (Olympus CKX53SF, Japan) to inspect for the presence of released particles.
The selected concentration of MMP-9 is within the range of MMP-9 expression in clinical wound fluids and synovial fluids of patients with rheumatoid arthritis and osteoarthritis [Ladwig, G. P. et al. Wound Repair and Regeneration 10(1) 26-37 (2002); Li, Z. et al. Journal of Diabetes and its Complications 27(4) 380-382 (2013)]. In a typical successful cleavage by MMP-9, the photographs of vials B1 and B2 in FIG. 2 show the appearance of a hybrid hydrogel, which had the same composition as that in vial A1, after prolonged exposure to a buffer with and without MMP-9 respectively. […] The optical microscope image C1 verified the presence of ibu-PLGA particles in the resulting liquid mixture of vial B1 confirming the successful digestion of this hybrid hydrogel by MMP-9. In contrast, MMP-9-free PBS buffer added after gelation was observed as a clear liquid phase in vial B2. The optical microscope image C2 also confirmed the absence of any released lbu-PLGA particles in vial B2.
Target sequence in this assay (P14780 107-707 limits assumed): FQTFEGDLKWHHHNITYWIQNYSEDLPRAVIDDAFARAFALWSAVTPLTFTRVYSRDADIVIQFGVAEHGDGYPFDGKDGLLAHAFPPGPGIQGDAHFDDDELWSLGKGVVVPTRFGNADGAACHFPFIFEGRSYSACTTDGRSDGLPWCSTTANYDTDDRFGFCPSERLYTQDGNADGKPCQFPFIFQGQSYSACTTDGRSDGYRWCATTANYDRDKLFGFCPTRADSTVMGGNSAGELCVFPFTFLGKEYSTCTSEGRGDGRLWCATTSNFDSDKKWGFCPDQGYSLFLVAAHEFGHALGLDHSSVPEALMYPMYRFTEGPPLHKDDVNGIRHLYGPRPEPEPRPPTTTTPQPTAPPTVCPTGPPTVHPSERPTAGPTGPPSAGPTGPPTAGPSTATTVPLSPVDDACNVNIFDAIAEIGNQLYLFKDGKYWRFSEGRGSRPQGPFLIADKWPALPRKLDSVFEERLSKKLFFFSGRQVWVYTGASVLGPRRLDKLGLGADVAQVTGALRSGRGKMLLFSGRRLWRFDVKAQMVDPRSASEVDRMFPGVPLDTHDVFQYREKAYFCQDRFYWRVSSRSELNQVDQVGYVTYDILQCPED

MMP-9 [5] = target: T1, MMP-9; test: Protease specificity of peptide anchor (MMP-9 versus Cathepsin B and HNE); type: biochemical
Excerpt: A) The cumulative liberation of ibuprofen (LIbu) increased corresponding to the increase in the MMP-9 concentrations. Absence of diffusion-driven basal release in the absence of MMP9 protease (bottom line). B) The specificity of GPRSLSGRRCG (SEQ ID NO: 20) sensitivity to MMP-9 compared to Cathepsin B and HNE. Error bars represent standard error of the means of n=4 replicates.
FIG. 9 supports the hypothesis that protease-sensitive drug release can be achieved from an ibuprofen-conjugated PEG hydrogel upon exposure to clinically relevant protease concentration of 1 ug/ml. […] LC-MS analysis confirmed the presence of the liberated ibuprofen bearing fragment (ibu-GPQG, LC peak at elution time of 14.6 min, MS peak at m/z=546.20) in the supernatant collected after 2 days of hydrogel exposure to MMP9 solution (FIG. 9B). In contrast, this peak is absent from the supernatant collected when the hydrogel was exposed to a control buffer without MMP9. Since the concentration of active MMP9 in human wound fluid falls within the range of 0.3-4.8 μg/ml, our data in FIG. 10A support the feasibility of drug release at a clinically relevant protease concentration.
Target sequence in this assay (P14780 94-707): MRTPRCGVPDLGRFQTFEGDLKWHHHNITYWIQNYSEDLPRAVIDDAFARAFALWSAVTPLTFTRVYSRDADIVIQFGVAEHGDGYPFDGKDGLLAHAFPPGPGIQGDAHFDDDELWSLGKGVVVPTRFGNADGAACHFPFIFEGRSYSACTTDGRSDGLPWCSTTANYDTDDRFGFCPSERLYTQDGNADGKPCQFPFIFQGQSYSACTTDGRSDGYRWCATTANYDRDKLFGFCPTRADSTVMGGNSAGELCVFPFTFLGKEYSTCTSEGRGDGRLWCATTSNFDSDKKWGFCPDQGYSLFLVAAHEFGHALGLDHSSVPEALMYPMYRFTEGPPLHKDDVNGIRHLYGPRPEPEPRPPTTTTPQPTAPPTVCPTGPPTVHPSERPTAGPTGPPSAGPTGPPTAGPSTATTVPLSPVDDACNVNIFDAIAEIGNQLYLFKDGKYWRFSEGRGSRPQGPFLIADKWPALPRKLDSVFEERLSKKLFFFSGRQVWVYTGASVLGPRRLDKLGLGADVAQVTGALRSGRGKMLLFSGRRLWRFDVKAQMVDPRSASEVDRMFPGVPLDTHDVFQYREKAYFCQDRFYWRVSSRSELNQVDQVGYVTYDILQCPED

MMP-9 [6] = target: T1, MMP-9; test: Degradation of plural protease-cleavable hydrogel, MMP-9 alone; type: biochemical
Method: (§2) A) Schematic of the mechanism of dual protease-responsive combinational hydrogel system. B) Photographs show the cleavability of H2-M2 combinational hydrogels over 24 hours (n=3). (i) Control, (ii) With HNE protease; (iii) With MMP-9 protease; and (iv) With both HNE and MMP-9 proteases. C) Quantification of the average number of PLGA particles released from combinational hydrogels in the presence of zero, single or dual proteases over 24 hours (n=3). Error bars represent s.e.m of n=3 replicates. p-values were determined by one-way ANOVA with Tukey post-hoc analysis. (***) and (ns) denote p≤0.001 and p≥0.05 (not significant) respectively.
Target sequence in this assay (P14780 94-707): as above

HNE = target: T2, HNE (Homo sapiens, UniProt P08246); test: Degradation of plural protease-cleavable hydrogel, HNE alone; type: biochemical
T2 sequence (P08246 30-267): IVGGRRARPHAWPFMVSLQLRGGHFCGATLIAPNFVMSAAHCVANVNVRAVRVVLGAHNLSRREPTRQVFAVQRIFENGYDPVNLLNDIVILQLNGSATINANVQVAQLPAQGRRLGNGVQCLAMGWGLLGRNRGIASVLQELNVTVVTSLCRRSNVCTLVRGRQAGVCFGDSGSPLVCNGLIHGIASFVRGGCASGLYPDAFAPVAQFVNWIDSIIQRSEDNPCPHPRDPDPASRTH
Method: as §2

Molecule: CCCCCCCCCCCCCC(=O)O[C@@H]1[C@@H](C)[C@@]2(O)[C@@H](C=C(CO)C[C@]3(O)C(=O)C(C)=C[C@@H]23)[C@@H]2C(C)(C)[C@]12OC(C)=O [PMA, phorbol 12-myristate 13-acetate]
- amount of MMP-9 secreted, difference 4 μg versus 0 μg PMA (MMP-9 [1]): 10 fold
- amount of MMP-9 secreted, difference 4 μg versus 0.4 μg PMA (MMP-9 [1]): 5 fold
- MMP activity (fluorescent signal), difference 4 μg versus 0.4 μg of PMA (MMPs): 1.9 fold

Molecule: CC(C)Cc1ccc(C(C)C(=O)O)cc1 (stereo not drawn) [ibuprofen]
- relative metabolic activity of macrophages [2]: ~0%

Molecule: GCRD-AVRW↓LLTA-DRCG (GCRDAVRWLLTADRCG; GCRD-AVRWLLTA-DRCG) [peptide (8)]
- gelation by crosslinking with PEG-VS ([3]; PBS/NaOH buffer): preventing gelation
- gelation by crosslinking with PEG-VS ([3]; TEOA buffer): preventing gelation

Molecule: GCRD-GPQG↓IWGQ-DRCG (GCRDGPQGIWGQDRCG; GCRD-GPQGIWGQ-DRCG) [peptide (5), spacer GCRD]
- cleavability of hybrid hydrogel crosslinked with the peptide by MMP-9 (MMP-9 [4]): could be digested by MMP-9

Molecule: GCRD-KGPRS↓LSGK-DRCG (GCRDKGPRSLSGKDRCG; GCRD-KGPRSLSGK-DRCG) [(7)]
- cleavability of hybrid hydrogel crosslinked with the peptide by MMP-9 (MMP-9 [4]): could be digested by MMP-9; also recorded: successful hydrogel cleavage by MMP-9

Molecule: GCRD-LGRM↓GLPGK-DRCG (GCRDLGRMGLPGKDRCG; GCRD-LGRMGLPGK-DRCG) [peptide (6), spacer GCRD, same substrate as peptide (2)]
- cleavability of hybrid hydrogel crosslinked with the peptide by MMP-9 (MMP-9 [4]): not cleaved

Molecule: GCRR-AVRW↓LLTA-RRCG (GCRRAVRWLLTARRCG; GCRR-AVRWLLTA-RRCG) [peptide (3)]
- gelation by crosslinking with PEG-VS ([3]; PBS/NaOH buffer): could induce gelation
- gelation by crosslinking with PEG-VS ([3]; TEOA buffer): not
- cleavability of hybrid hydrogel crosslinked with the peptide by MMP-9 (MMP-9 [4]): not cleaved

Molecule: GCRR-GPQG↓IWGQ-RRCG (GCRRGPQGIWGQRRCG; GCRR-GPQGIWGQ-RRCG) [peptide (4), spacer GCRR]
- cleavability of hybrid hydrogel crosslinked with the peptide by MMP-9 (MMP-9 [4]): could be digested by MMP-9; also recorded: successful hydrogel cleavage by MMP-9

Molecule: GCRR-KGPRSLSGK-RRCG (GCRRKGPRSLSGKRRCG; GCRR-KGPRSLSGK-RRCG) [peptide (1)]
- cleavability of hybrid hydrogel crosslinked with the peptide by MMP-9 (MMP-9 [4]): could be digested by MMP-9; also recorded: successful hydrogel cleavage by MMP-9

Molecule: GCRR-LGRM↓GLPGK-RRCG (GCRRLGRMGLPGKRRCG; GCRR-LGRMGLPGK-RRCG) [peptide (2), spacer GCRR, same substrate as peptide (6)]
- cleavability of hybrid hydrogel crosslinked with the peptide by MMP-9 (MMP-9 [4]): not cleaved

Molecule: GPRSLSGRRCG (GPRSLSGRRCG)
- specificity toward MMP-9 compared to cathepsin B and HNE (MMP-9 [5]): good specificity toward MMP-9

Molecule: GRCR-GPRS↓LSG-RCRG [M2]
- preferential cleavage of peptide substrate by MMP-9 (MMP-9 [6]): preferentially cleaved

Molecule: GRCR-PMAV↓VQSVP-RCRG [H2]
- preferential cleavage of peptide substrate by HNE (HNE): preferentially cleaved
